Tests used:
[1] = tested on: HeLa Kyoto; experiment: solubility in G1/S (NP-40 vs SDS abundance) (log2 ratio); higher = more soluble; conditions: cell cycle stage: G1/S
[2] = tested on: HeLa Kyoto; experiment: solubility change mitosis vs G1/S (difference of NP-40 vs SDS log2 ratios) (log2 ratio difference); higher = more soluble in mitosis
[3] = tested on: HeLa Kyoto; experiment: thermal stability score vs G1/S (z-score of summed log2 fold changes over temperatures); higher = more thermally stable than in G1/S
[4] = cell cycle stage: early G1 (4.5 h after nocodazole release)
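For solubility change mitosis vs G1/S (difference of NP-40 vs SDS log2 ratios) in this document: synchronized HeLa Kyoto cells (double thymidine block for G1/S, nocodazole release for mitosis), protein amounts in NP-40 versus SDS lysates quantified by mass spectrometry, three biological replicates.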
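For solubility in G1/S (NP-40 vs SDS abundance) in this document: HeLa Kyoto cells arrested at G1/S by double thymidine block, proteins quantified by TMT10plex mass spectrometry in mild NP-40 versus SDS extracts, three biological replicates.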
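For thermal stability score vs G1/S (z-score of summed log2 fold changes over temperatures) in this document: synchronized HeLa Kyoto cells, proteins quantified by TMT10plex mass spectrometry, three biological replicates, mitosis taken 0.5 h after nocodazole release, G1/S directly after double thymidine block.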

MASADKNGGSVSSVSSSRLQSRKPPNLSITIPPPEKETQAPGEQDSMLPEGFQNRRLKKSQPRTWAAHTTACPPSFLPKRKNPAYLKSVSLQEPRSRWQESSEKRPGFRRQASLSQSIRKGAAQWFGVSGDWEGQRQQWQRRSLHHCSMRYGRLKASCQRDLELPSQEAPSFQGTESPKPCKMPKIVDPLARGRAFRHPEEMDRPHAPHPPLTPGVLSLTSFTSVRSGYSHLPRRKRMSVAHMSLQAAAALLKGRSVLDATGQRCRVVKRSFAFPSFLEEDVVDGADTFDSSFFSKEEMSSMPDDVFESPPLSASYFRGIPHSASPVSPDGVQIPLKEYGRAPVPGPRRGKRIASKVKHFAFDRKKRHYGLGVVGNWLNRSYRRSISSTVQRQLESFDSHRPYFTYWLTFVHVIITLLVICTYGIAPVGFAQHVTTQLVLRNKGVYESVKYIQQENFWVGPSSIDLIHLGAKFSPCIRKDGQIEQLVLRERDLERDSGCCVQNDHSGCIQTQRKDCSETLATFVKWQDDTGPPMDKSDLGQKRTSGAVCHQDPRTCEEPASSGAHIWPDDITKWPICTEQARSNHTGFLHMDCEIKGRPCCIGTKGSCEITTREYCEFMHGYFHEEATLCSQVHCLDKVCGLLPFLNPEVPDQFYRLWLSLFLHAGVVHCLVSVVFQMTILRDLEKLAGWHRIAIIFILSGITGNLASAIFLPYRAEVGPAGSQFGLLACLFVELFQSWPLLERPWKAFLNLSAIVLFLFICGLLPWIDNIAHIFGFLSGLLLAFAFLPYITFGTSDKYRKRALILVSLLAFAGLFAALVLWLYIYPINWPWIEHLTCFPFTSRFCEKYELDQVLH [RHBDF2]
solubility in G1/S (log2) [1]: -0.177 | solubility change mitosis (log2) [2]: 0.063 | thermal stability score [3, 4]: -2.24 | thermal stability score ([3]; cell cycle stage: mitosis): -2.01

MASPRASRWPPPLLLLLLPLLLLPPAAPGTRDPPPSPARRALSLAPLAGAGLELQLERRPEREPPPTPPRERRGPATPGPSYRAPEPGAATQRGPSGRAPRGGSADAAWKHWPESNTEAHVENITFYQNQEDFSTVSSKEGVMVQTSGKSHAASDAPENLTLLAETADARGRSGSSSRTNFTILPVGYSLEIATALTSQSGNLASESLHLPSSSSEFDERIAAFQTKSGTASEMGTERAMGLSEEWTVHSQEATTSAWSPSFLPALEMGELTTPSRKRNSSGPDLSWLHFYRTAASSPLLDLSSSSESTEKLNNSTGLQSSSVSQTKTMHVATVFTDGGPRTLRSLTVSLGPVSKTEGFPKDSRIATTSSSVLLSPSAVESRRNSRVTGNPGDEEFIEPSTENEFGLTSLRWQNDSPTFGEHQLASSSEVQNGSPMSQTETVSRSVAPMRGGEITAHWLLTNSTTSADVTGSSASYPEGVNASVLTQFSDSTVQSGGSHTALGDRSYSESSSTSSSESLNSSAPRGERSIAGISYGQVRGTAIEQRTSSDHTDHTYLSSTFTKGERALLSITDNSSSSDIVESSTSYIKISNSSHSEYSSFFHAQTERSNISSYDGEYAQPSTESPVLHTSNLPSYTPTINMPNTSVVLDTDAEFVSDSSSSSSSSSSSSSSGPPLPLPSVSQSHHLFSSILPSTRASVHLLKSTSDASTPWSSSPSPLPVSLTTSTSAPLSVSQTTLPQSSSTPVLPRARETPVTSFQTSTMTSFMTMLHSSQTADLKSQSTPHQEKVITESKSPSLVSLPTESTKAVTTNSPLPPSLTESSTEQTLPATSTNLAQMSPTFTTTILKTSQPLMTTPGTLSSTASLVTGPIAVQTTAGKQLSLTHPEILVPQISTEGGISTERNRVIVDATTGLIPLTSVPTSAKEMTTKLGVTAEYSPASRSLGTSPSPQTTVVSTAEDLAPKSATFAVQSSTQSPTTVSSSASVNSCAVNPCLHNGECVADNTSRGYHCRCPPSWQGDDCSVDVNECLSNPCPSTAMCNNTQGSFICKCPVGYQLEKGICNLVRTFVTEFKLKRTFLNTTVEKHSDLQEVENEITKTLNMCFSALPSYIRSTVHASRESNAVVISLQTTFSLASNVTLFDLADRMQKCVNSCKSSAEVCQLLGSQRRIFRAGSLCKRKSPECDKDTSICTDLDGVALCQCKSGYFQFNKMDHSCRACEDGYRLENETCMSCPFGLGGLNCGNPYQLITVVIAAAGGGLLLILGIALIVTCCRKNKNDISKLIFKSGDFQMSPYAEYPKNPRSQEWGREAIEMHENGSTKNLLQMTDVYYSPTSVRNPELERNGLYPAYTGLPGSRHSCIFPGQYNPSFISDESRRRDYF [HEG1]
solubility in G1/S (log2) [1]: -0.231 | solubility change mitosis (log2) [2]: -0.0254 | thermal stability score [3, 4]: -0.763 | thermal stability score ([3]; cell cycle stage: mitosis): -1.15

MATPDVSVHMEEVVVVTTPDTAVDGSGVEGVKTVLVTTNLAPHGGDLTEDNMETENAAAAAAAAFTASSQLKEAVLVKMAEEGENLEAEIVYPITCGDSRANLIWRKFVCPGINVKCVQYDEHVISPKEFVHLAGKSTLKDWKRAIRMNGIMLRKIMDSGELDFYQHDKVCSNTCRSTKIDLSGARVSLSSPTSAEYIPLTPAAADVNGSPATITIETCEDPGDWTAAIGDDTFTFWRGLKDAGLLDEVIQEFHQELVETMRGLQQRVQDPPLQLRDAVLLNNIVQNFGMLDLVKKVLASHKCQMDRSREQYARDLAALEQQCDEHRRRAKELKHKSQHLSNVLMTLTPVSLPPPVKRPRLARATSGPAAMASQVLTQSAQLALGPGVPVPQLTSVPLGKVVSTLPSTVLGKGSLQAPPASSPASPLLGGYTVLASSGSTYPSTVEIHPDASSLTVLSTAAVQDGSTVFKVVSPLQLLTLPGLGPTLQNVAQASPGSSTIVTVPAGAAPGPEEHTATIEVAAMAEDHERK [GMEB2]
solubility in G1/S (log2) [1]: -0.0692 | solubility change mitosis (log2) [2]: 0.0606 | thermal stability score [3, 4]: 0.359 | thermal stability score ([3]; cell cycle stage: mitosis): 0.761

MDSQELKTLINYYCQERYFHHVLLVASEGIKRYGSDPVFRFYHAYGTLMEGKTQEALREFEAIKNKQDVSLCSLLALIYAHKMSPNPDREAILESDARVKEQRKGAGEKALYHAGLFLWHIGRHDKAREYIDRMIKISDGSKQGHVLKAWLDITRGKEPYTKKALKYFEEGLQDGNDTFALLGKAQCLEMRQNYSGALETVNQIIVNFPSFLPAFVKKMKLQLALQDWDQTVETAQRLLLQDSQNVEALRMQALYYVCREGDIEKASTKLENLGNTLDAMEPQNAQLFYNITLAFSRTCGRSQLILQKIQTLLERAFSLNPQQSEFATELGYQMILQGRVKEALKWYKTAMTLDETSVSALVGFIQCQLIEGQLQDADQQLEFLNEIQQSIGKSAELIYLHAVLAMKKNKRQEEVINLLNDVLDTHFSQLEGLPLGIQYFEKLNPDFLLEIVMEYLSFCPMQPASPGQPLCPLLRRCISVLETVVRTVPGLLQTVFLIAKVKYLSGDIEAAFNNLQHCLEHNPSYADAHLLLAQVYLSQEKVKLCSQSLELCLSYDFKVRDYPLYHLIKAQSQKKMGEIADAIKTLHMAMSLPGMKRIGASTKSKDRKTEVDTSHRLSIFLELIDVHRLNGEQHEATKVLQDAIHEFSGTSEEVRVTIANADLALAQGDIERALSILQNVTAEQPYFIEAREKMADIYLKHRKDKMLYITCFREIAERMANPRSFLLLGDAYMNILEPEEAIVAYEQALNQNPKDGTLASKMGKALIKTHNYSMAITYYEAALKTGQKNYLCYDLAELLLKLKWYDKAEKVLQHALAHEPVNELSALMEDGRCQVLLAKVYSKMEKLGDAITALQQARELQARVLKRVQMEQPDAVPAQKHLAAEICAEIAKHSVAQRDYEKAIKFYREALVHCETDNKIMLELARLYLAQDDPDSCLRQCALLLQSDQDNEAATMMMADLMFRKQDYEQAVFHLQQLLERKPDNYMTLSRLIDLLRRCGKLEDVPRFFSMAEKRNSRAKLEPGFQYCKGLYLWYTGEPNDALRHFNKARKDRDWGQNALYNMIEICLNPDNETVGGEVFENLDGDLGNSTEKQESVQLAVRTAEKLLKELKPQTVQGHVQLRIMENYCLMATKQKSNVEQALNTFTEIAASEKEHIPALLGMATAYMILKQTPRARNQLKRIAKMNWNAIDAEEFEKSWLLLADIYIQSAKYDMAEDLLKRCLRHNRSCCKAYEYMGYIMEKEQAYTDAALNYEMAWKYSNRTNPAVGYKLAFNYLKAKRYVDSIDICHQVLEAHPTYPKIRKDILDKARASLRP [TTC21B]
solubility in G1/S (log2) [1]: -0.116 | solubility change mitosis (log2) [2]: -0.211 | thermal stability score [3, 4]: 1.06 | thermal stability score ([3]; cell cycle stage: mitosis): 0.205

MEASLGIQMDEPMAFSPQRDRFQAEGSLKKNEQNFKLAGVKKDIEKLYEAVPQLSNVFKIEDKIGEGTFSSVYLATAQLQVGPEEKIALKHLIPTSHPIRIAAELQCLTVAGGQDNVMGVKYCFRKNDHVVIAMPYLEHESFLDILNSLSFQEVREYMLNLFKALKRIHQFGIVHRDVKPSNFLYNRRLKKYALVDFGLAQGTHDTKIELLKFVQSEAQQERCSQNKSHIITGNKIPLSGPVPKELDQQSTTKASVKRPYTNAQIQIKQGKDGKEGSVGLSVQRSVFGERNFNIHSSISHESPAVKLMKQSKTVDVLSRKLATKKKAISTKVMNSAVMRKTASSCPASLTCDCYATDKVCSICLSRRQQVAPRAGTPGFRAPEVLTKCPNQTTAIDMWSAGVIFLSLLSGRYPFYKASDDLTALAQIMTIRGSRETIQAAKTFGKSILCSKEVPAQDLRKLCERLRGMDSSTPKLTSDIQGHASHQPAISEKTDHKASCLVQTPPGQYSGNSFKKGDSNSCEHCFDEYNTNLEGWNEVPDEAYDLLDKLLDLNPASRITAEEALLHPFFKDMSL [CDC7]
solubility in G1/S (log2) [1]: -0.0102 | solubility change mitosis (log2) [2]: 0.0299 | thermal stability score [3, 4]: 2.43 | thermal stability score ([3]; cell cycle stage: mitosis): 2.74

MED13
solubility in G1/S (log2) [1]: -0.213 | solubility change mitosis (log2) [2]: -0.112 | thermal stability score [3, 4]: -0.573 | thermal stability score ([3]; cell cycle stage: mitosis): -0.435

MEEELQHSHCVNCVSRRCMTRPEPGISCDLIGCPLVCGAVFHSCKADEHRLLCPFERVPCLNSDFGCPFTMARNKVAEHLEMCPASVVCCTMEWNRWPVSYADRKSYENLSRDVDEVAQLDMALALQDQRMLLESLKVATMMSKATDKVSKPREQISVKSSVPEIPHANGLVSVDEESYGALYQATVETTRSLAAALDILNTATRDIGMLNTSVPNDMDEQQNARESLEDQNLKDQDHLYEEEIGAVGGIDYNDTNQNAQSEQNGSSDLLCDLNTSSYDTSALCNGFPLENICTQVIDQNQNLHGDSKQSNLTNGDCVASSDGTSKPSSSLAVAAQLREIIPSSALPNGTVQHILMPDDEGEGELCWKKVDLGDVKNVDVLSFSHAPSFNFLSNSCWSKPKEDKAVDTSDLEVAEDPMGLQGIDLITAALLFCLGDSPGGRGISDSRMADIYHIDVGTQTFSLPSAILATSTMVGEIASASACDHANPQLSNPSPFQTLGLDLVLECVARYQPKQRSMFTFVCGQLFRRKEFSSHFKNVHGDIHAGLNGWMEQRCPLAYYGCTYSQRRFCPSIQGAKIIHDRHLRSFGVQPCVSTVLVEPARNCVLGLHNDHLSSLPFEVLQHIAGFLDGFSLCQLSCVSKLMRDVCGSLLQSRGMVILQWGKRKYPEGNSSWQIKEKVWRFSTAFCSVNEWKFADILSMADHLKKCSYNVVEKREEAIPLPCMCVTRELTKEGRSLRSVLKPVL [FBXO30]
solubility in G1/S (log2) [1]: -0.564 | solubility change mitosis (log2) [2]: 0.106 | thermal stability score [3, 4]: 0.306 | thermal stability score ([3]; cell cycle stage: mitosis): 1.03

MELKVWVDGVQRIVCGVTEVTTCQEVVIALAQAIGRTGRYTLIEKWRDTERHLAPHENPIISLNKWGQYASDVQLILRRTGPSLSERPTSDSVARIPERTLYRQSLPPLAKLRPQIDKSIKRREPKRKSLTFTGGAKGLMDIFGKGKETEFKQKVLNNCKTTADELKKLIRLQTEKLQSIEKQLESNEIEIRFWEQKYNSNLEEEIVRLEQKIKRNDVEIEEEEFWENELQIEQENEKQLKDQLQEIRQKITECENKLKDYLAQIRTMESGLEAEKLQREVQEAQVNEEEVKGKIGKVKGEIDIQGQQSLRLENGIKAVERSLGQATKRLQDKEQELEQLTKELRQVNLQQFIQQTGTKVTVLPAEPIEIEASHADIEREAPFQSGSLKRPGSSRQLPSNLRILQNPISSGFNPEGIYV [RASSF8]
solubility in G1/S (log2) [1]: 0.445 | solubility change mitosis (log2) [2]: 0.00342 | thermal stability score [3, 4]: 0.245 | thermal stability score ([3]; cell cycle stage: mitosis): -0.268

Source: the supplement of paper PMC5998384
